T1: recombinant human GARP (R&D Systems, catalog number 6055-LR) (human, UniProt Q14392 20-627)
T1 construct: Bought soluble protein; In the phage panning and Fab screening it was in part biotinylated; also called antigen
T1 sequence: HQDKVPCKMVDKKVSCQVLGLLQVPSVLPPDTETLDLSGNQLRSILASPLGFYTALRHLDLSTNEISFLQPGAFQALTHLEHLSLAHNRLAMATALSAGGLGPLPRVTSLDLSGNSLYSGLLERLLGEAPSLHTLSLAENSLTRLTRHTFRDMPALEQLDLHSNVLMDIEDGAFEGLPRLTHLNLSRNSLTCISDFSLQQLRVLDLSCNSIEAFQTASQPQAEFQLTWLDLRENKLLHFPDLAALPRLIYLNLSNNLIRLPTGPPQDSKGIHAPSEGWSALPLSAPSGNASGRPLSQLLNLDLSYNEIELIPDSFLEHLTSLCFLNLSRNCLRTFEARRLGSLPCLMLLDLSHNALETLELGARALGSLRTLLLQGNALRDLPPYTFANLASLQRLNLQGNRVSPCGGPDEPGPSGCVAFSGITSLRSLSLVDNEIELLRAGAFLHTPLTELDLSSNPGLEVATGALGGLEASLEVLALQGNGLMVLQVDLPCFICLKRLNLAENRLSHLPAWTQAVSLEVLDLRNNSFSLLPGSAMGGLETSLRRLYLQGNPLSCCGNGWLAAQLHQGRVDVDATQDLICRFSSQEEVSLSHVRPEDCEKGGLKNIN

T2: human GARP expressed on cells (GARP-transfected HEK-293T cells; endogenous on L428 cells and activated Treg) (human, UniProt Q14392 20-662)
T2 construct: The transfected cells carry a human GARP cDNA clone (Origene) in pcDNA3.1(+); also called hGARP; endogenously expressed GARP
T2 sequence: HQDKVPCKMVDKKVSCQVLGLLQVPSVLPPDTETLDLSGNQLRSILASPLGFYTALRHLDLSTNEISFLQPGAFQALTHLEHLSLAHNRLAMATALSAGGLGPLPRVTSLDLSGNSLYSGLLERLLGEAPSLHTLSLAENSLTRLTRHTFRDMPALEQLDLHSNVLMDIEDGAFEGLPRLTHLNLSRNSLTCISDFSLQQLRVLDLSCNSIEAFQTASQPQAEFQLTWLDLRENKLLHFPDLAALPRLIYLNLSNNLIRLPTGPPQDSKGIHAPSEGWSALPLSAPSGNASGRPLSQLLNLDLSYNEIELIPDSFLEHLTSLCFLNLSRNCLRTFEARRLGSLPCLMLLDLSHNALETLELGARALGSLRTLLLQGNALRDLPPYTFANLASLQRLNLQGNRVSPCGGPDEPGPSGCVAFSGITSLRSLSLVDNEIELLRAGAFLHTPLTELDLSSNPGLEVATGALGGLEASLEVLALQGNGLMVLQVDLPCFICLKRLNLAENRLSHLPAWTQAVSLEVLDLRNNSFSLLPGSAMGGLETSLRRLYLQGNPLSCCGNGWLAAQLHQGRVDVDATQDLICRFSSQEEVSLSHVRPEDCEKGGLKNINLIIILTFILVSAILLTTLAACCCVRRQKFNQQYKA


Columns and labels:
[1] = target: human GARP expressed on cells (GARP-transfected HEK-293T cells; endogenous on L428 cells and activated Treg) (human) (UniProt Q14392); experiment: flow cytometry on anti-CD3/anti-CD28 activated human PBMC, Alexa Fluor 647-labeled antibody against PE anti-Foxp3; the panel Antibody not-added prints 0.13
[2] = target: human GARP expressed on cells (GARP-transfected HEK-293T cells; endogenous on L428 cells and activated Treg) (human) (UniProt Q14392); experiment: flow cytometry on anti-CD3/anti-CD28 activated human PBMC, Alexa Fluor 647-labeled antibody against PE anti-Foxp3; the panel Antibody not-added prints 0.18
[3] = target: human GARP expressed on cells (GARP-transfected HEK-293T cells; endogenous on L428 cells and activated Treg) (human) (UniProt Q14392); experiment: flow cytometry on CD3/CD28 bead-activated human PBMC gated on CD4-positive cells, FITC-labeled anti-IgG secondary antibody against PE anti-Foxp3
[4] = target: T1, recombinant human GARP (R&D Systems, …); experiment: SPR (Biacore T200), antibody captured on Protein A, GARP antigen as analyte, 1:1 fit
Description: The dissociation constant between each of the humanized anti-human GARP antibodies h151D-H1L1, h151D-H4L4 and h198D-H3L4 produced in Example 7)-10 and GARP was evaluated by using Biacore T200 (GE Healthcare Bioscience), according to a capture method, which comprises capturing the antibody as a ligand by the immobilized Protein A and then analyzing the dissociation constant using an antigen as an analyte. HBS-EP+ (manufactured by GE Healthcare Bioscience) was used as a running buffer, and a Protein A Sensor Chip (manufactured by GE Healthcare Bioscience) was used as a sensor chip.
(§1) The human chimeric antibody (1 μg/mL) was added onto the chip at a rate of 10 μL/min for 20 seconds, and a dilution series solution (8 to 128 nM) of the antigen was added at a flow rate of 30 μl/min for 120 seconds. Subsequently, the dissociation was monitored for 480 seconds. As a regeneration solution, Glycine 1.5 (manufactured by GE Healthcare Bioscience) was added at a flow rate of 20 μl/min for 30 seconds.
1:1 Fitting model was used in data analysis, and the association rate constant ka, the dissociation rate constant kd, and the dissociation constant (KD; KD=kd/ka) were calculated.

[5] = target: T2, human GARP expressed on cells …; experiment: flow cytometry on CD3/CD28 bead-activated human PBMC gated on CD4-positive cells, FITC-labeled anti-IgG secondary antibody against PE anti-Foxp3
[6] = target: T1, recombinant human GARP (R&D Systems, …); experiment: ELISA on plate-coated human GARP (1 ug/mL), 50 nM antibody, HRP anti-human Fc, chemiluminescence
Description: The plate was washed with the ELISA buffer three times. […] On the other hand, 100 μL of HRP-labeled anti-mouse Fc antibody (R&D Systems), which had been 5000-fold diluted with PBS, was added to the wells treated with mouse anti-GARP antibody and mouse IgG. The plate was incubated at room temperature for 1 hour with mixing.

[7] = target: T1, recombinant human GARP (R&D Systems, …); experiment: SPR (Biacore T200), antibody captured on Protein A, recombinant human GARP as analyte, 1:1 fit
Description: The dissociation constant between the c151D or c198D produced in Example 6)-4 and human GARP was evaluated by using Biacore T200 (GE Healthcare Bioscience), according to a capture method, which comprises capturing the antibody as a ligand with the immobilized Protein A and then analyzing the dissociation constant using an antigen (recombinant human GARP: R&D Systems) as an analyte. HBS-EP+ (manufactured by GE Healthcare Bioscience) was used as a running buffer, and a Protein A Sensor Chip (manufactured by GE Healthcare Bioscience) was used as a sensor chip.
as §1, with “antigen was then added at” for “antigen was added at”
1:1 Fitting models were used in data analysis, and the association rate constant ka, the dissociation rate constant kd, and the dissociation constant (KD; KD=kd/ka) were calculated.

Kd [4] [nM]	percent of CD4-positive cells in Q2 (GARP-positive, Foxp3-positive) [5] [%]	percent of CD4-positive cells in Q3 (GARP-positive, Foxp3-negative) [5] [%]	Molecule	also measured
–	–	–	Alexa Fluor 647-labeled anti-GARP antibody (G14D9, eBioscience)	percent of cells in the upper right quadrant (GARP-positive, Foxp3-positive) [1]: 4.19; percent of cells in the lower right quadrant (GARP-positive, Foxp3-negative) [2]: 0.81
–	–	–	human IgG (antibody)	percent of CD4-positive cells in Q2 (GARP-positive, Foxp3-positive) [3]: 0.039%; percent of CD4-positive cells in Q3 (GARP-positive, Foxp3-negative) [3]: 0.242%
1.8	3.54	2.41	humanized anti-human GARP antibody h151D-H1L1 (antibody, human IgG1, kappa, V domains shown, Produced in Potelligent CHOK1SV cells; also called MACA-1511a) VH: EVQLVESGGGLVQPGGSLRLSCAASGFTFSNYYMAWVRQAPGKGLEWVSSIGTVGGNTYYADSVKGRFTISRDDSKNTLYLQMNSLRAEDTAVYYCAREDYGGFPHWGQGTLVTVSS VL: NIVMTQSPDSLAVSLGERATINCKASQNVGTNVDWYQQKPGQSPKLLIYGASNRYTGVPDRFSGSGSGTDFTLTISSLQAEDVAVYDCLQYKYNPYTFGQGTKVEIKR	–
1.2	3.38	2.59	humanized anti-human GARP antibody h151D-H4L4 (antibody, human IgG1, kappa, V domains shown, Produced in Potelligent CHOK1SV cells; also called MACA-1514a) VH: EVQLVESGGGLVQPGGSLRLSCAASGFTFSNYYMAWVRQAPGKGLEWVASIGTVGGNTYYRDSVKGRFTISRDDSKSTLYLQMNSLRAEDTAVYYCAREDYGGFPHWGQGTLVTVSS VL: NIVMTQSPSSLSASVGDRVTINCKASQNVGTNVDWYQQKPGKSPKLLIYGASNRYTGVPDRFSGSGSGTDFTLTISSLQPEDFATYDCLQYKYNPYTFGQGTKVEIKR	–
–	–	–	110F antibody (antibody, human IgG1, lambda, V domains shown) VH: EVQLLESGGGLVQPGGSLRLSCAASGFTFSSYGMHWVRQAPGKGLEWVAGISWNSAITVYADSVKGRFTISRDNSKNTLYLQMNSLRAEDTAVYYCAKDAGGRYSGSYYFDYWGQGTLVTVSS VL: QSVLTQPPSASGTPGQRVTISCTGSSSNIGAGYDVHWYQQLPGTAPKLLIYGNSNRPSGVPDRFSGSKSGTSASLAISGLRSEDEADYYCQSYDRSLNWVFGGGTKLTVLG	binding result [6]: binds
0.088	3.47	3.25	humanized anti-human GARP antibody h198D-H3L4 (antibody, human IgG1, kappa, V domains shown, Produced in Potelligent CHOK1SV cells; also called MACA-1983a) VH: EVQLVESGGGLVKPSQTLSLTCTVSGFSLTSFHVSWVRQPPGKGLEWIATISSGGGTYYNPSLKSRVTISRDTSKNQVSLKLSSVTAADTAVYYCARISGWGHYYVMDVWGQGTLVTVSS VL: DIQMTQSPSSLSASVGDRVTITCQASEDIYSGLAWYQQKPGKSPKLLIYGAGSLQDGVPSRFSGSGSGTHYTLTISSLQPEDFATYFCQQGLKFPLTFGQGTKVEIKR	–
–	–	–	human chimeric 151D antibody c151D (antibody, human IgG1, V domains shown) VH: EVQLVESGGGLVQPGRSKKLSCSASGFTFSNYYMAWVRQAPTQGLEWVASIGTVGGNTYYRDSVKGRFTISRDDAKSTLYLQMDSLRSEDTATYYCAREDYGGFPHWGQGVMVTVSS VL: NIVMTQSPTSMFISVGDRVTMNCKASQNVGTNVDWYQQKTGQSPKLLIYGASNRYTGVPDRFTGSGSGTDFTLTISNMQAEDLAVYDCLQYKYNPYTFGTGTKLELNR	Kd [7]: 0.47 nM
–	–	–	human chimeric 198D antibody c198D (antibody, human IgG1, V domains shown) VH: QVQLRESGPGLVQPSQTLSLTCTVSGFSLTSFHVSWVRQPPEKGLEWIATISSGGGTYYNSALKSRLSISRDTSKSQVFLKMSTLQTEDTAMYFCARISGWGHYYVMDVWGQGASVTVSS VL: DIQMTQSPASLSGSLGETVTIQCQASEDIYSGLAWYQQKPGKSPQLLIYGAGSLQDGVPSRFSGGGSGTHYSLKISSMQTEDEGVYFCQQGLKFPLTFGSGTKLEIKR	Kd [7]: 0.17 nM

From patent US20240360245A1 (Daiichi Sankyo, published 2024)
